Experimental data published in PMC7041945, “Misfolded proteins bind and activate death receptor 5 to trigger apoptosis during unresolved endoplasmic reticulum stress” (eLife, 2020).

Legend:
HCT116 cells = experiment: Annexin V (and SytoxBlue) flow cytometry for apoptosis; assay type: cell-based, Homo sapiens; conditions: for Mean ± SEM (Prism T-tests, Annexin V for MPZ-GFP): N=3, values agree with avg Annexin V+; for avg Annexin V+ / avg Annexin V-: mean of 3 replicates; for AnnexinV+ (Statistic, single cells) / AnnexinV- (Statistic, single cells) / GFP+ (Statistic, single cells) / GFP- (Statistic, single cells) / Q1: APC-A- , DAPI-A+ (Statistic, single cells) / Q2: APC-A+ , DAPI-A+ (Statistic, single cells) / Q3: APC-A+ , DAPI-A- (Statistic, single cells) / Q4: APC-A- , DAPI-A- (Statistic, single cells) / SytoxBlue+ (Statistic, single cells) / SytoxBlue- (Statistic, single cells) / dead cells (Statistic) / FITC-A+ (Statistic, dead cells) / FITC-A- (Statistic, dead cells): 2018-01-17 MPZ; for AnnexinV+ (Statistic, single cells): gate all cells/Single Cells/AnnexinV+; for AnnexinV- (Statistic, single cells): gate all cells/Single Cells/AnnexinV-; for GFP+ (Statistic, single cells): gate all cells/Single Cells/GFP+; for GFP- (Statistic, single cells): gate all cells/Single Cells/GFP-; for Q1: APC-A- , DAPI-A+ (Statistic, single cells): gate all cells/Single Cells/Q1; for Q2: APC-A+ , DAPI-A+ (Statistic, single cells): gate all cells/Single Cells/Q2; for Q3: APC-A+ , DAPI-A- (Statistic, single cells): gate all cells/Single Cells/Q3; for Q4: APC-A- , DAPI-A- (Statistic, single cells): gate all cells/Single Cells/Q4; for SytoxBlue+ (Statistic, single cells): gate all cells/Single Cells/SytoxBlue+; for SytoxBlue- (Statistic, single cells): gate all cells/Single Cells/SytoxBlue-; for dead cells (Statistic): gate dead cells of all events; for FITC-A+ (Statistic, dead cells): gate dead cells/Single Cells/FITC-A+; for FITC-A- (Statistic, dead cells): gate dead cells/Single Cells/FITC-A-
Description: Cells seeded in a 6-well plate were transfected with the specified plasmid for 24 hr and harvested via trypsinization in complete media to allow a 30 min recovery at 37°C. The samples were then centrifuged at 500xg for 5 min and resuspended In 150 μl of a 1:20 dilution of Annexin V-AlexaFluor 647 conjugate (Thermo Scientific #A23204). Samples were transferred to a 96-well U-bottom plate and incubated in the dark for 15 min at RT. The distribution of apoptotic cells was determined by flow cytometry on a BD LSR II.

[1] = test system: DR5 / ERGIC53 / giantin in HCT116 cells; experiment: Immunofluorescence co-localization (Pearson's correlation per cell); assay type: cell-based, Homo sapiens
Description: HCT116 were seeded at 25000 cells per well in an 8-well glass-bottom μSlide (Ibidi 80827) pre-coated with Collagen IV (Sigma-Aldrich C6745, 0.03 mg/ml in PBS incubated for 30 min at RT, and then rinsed off with PBS x 3) in growth media 18 hr prior to transfection (see above for protocol). 24 hr post-transfection, the cells were fixed using 4% paraformaldehyde (PFA, Electron Microscopy Sciences) or methanol, depending on the antibody combination used for immunostaining (see table below). Samples were protected from light after fixation to preserve GFP fluorescence.
For fixation with 4% PFA, 32% PFA was added directly to the well in growth media for a 1:8 dilution and incubated for 10–15 min at RT. Cells were then permeabilized with PHEM buffer (60 mM PIPES, 25 mM HEPES, 10 mM EGTA, 2 mM MgCl2-hexahydrate, pH 6.9) containing 0.1% Triton-X100 for 10 min at RT for three washes.
For fixation with methanol, media was removed and cells were washed with cold PBS. Then methanol (pre-cooled at −20°C) was added to the well and incubated at −20°C for 3–4 min. The methanol was promptly aspirated and replaced with PHEM buffer (without Triton X-100), followed by two more 10 min washes with PHEM at RT.
To block against non-specific antibody interactions, cells were rinsed in PHEM (without 0.1% Triton X-100) and then incubated with PHEM containing 2% normal goat serum (Jackson Immunoresearch Laboratories, 005-000-121) for 1 hr at RT. Primary antibodies were incubated in blocking solution overnight at 4°C at the dilution noted in the table above. […]
From the 405 nm channel, cell nuclei were identified as primary objects using maximum correlation thresholding (MCT) and shape to distinguish clumped objects. […] For overlap between DR5 and MPZ/RHO-GFP, Pearson’s correlation coefficients were calculated within the MPZ/RHO mask for each cell to filter out untransfected cells. For overlap between DR5/MPZ and organelle markers, Pearson’s correlation coefficients were calculated within tertiary objects for the organelle marker in GFP+ cells. […]

[2] = siRNA DR5 (siDR5), 2017-01-17 Replicate
[3] = siRNA DR5 (siDR5), 2018-06-21 Rep 1
[4] = siRNA DR5 (siDR5), 2018-06-21 Rep 2
[5] = siRNA scrambled, 2017-01-17 Replicate
[6] = siRNA scrambled, Tg sample with empty construct
[7] = siRNA scrambled, 2018-06-21 Rep 1
[8] = siRNA scrambled, 2018-06-21 Rep 2
[9] = MPZ-positive cells, N > 55, 24 hr, mean

B1: MPZ-GFP: myelin protein zero with a C-terminal monomeric EGFP, expressed from plasmid (protein)
chain: IVVYTDREVHGAVGSRVTLHCSFWSSEWVSDDISFTWRYQPEGGRDAISIFHYAKGQPYIDEVGTFKERIQWVGDPRWKDGSIVIHNLDYSDNGTFTCDVKNPPDIVGKTSQVTLYVFEKVPTRYGVVLGAVIGGVLGVVLLLLLLFYVVRYCWLRRQAALQRRLSAMEKGKLHKPGKDASKRGRQTPVLYAMLDHSRSTKAVSEKKAKGLGESRKDKK
modifications: left off: monomeric EGFP, C-terminal, kept
notes: myelin protein zero with a C-terminal monomeric EGFP, expressed from plasmid
HCT116 cells; MPZ-GFP siDR5 vs. MPZ-GFP
  Difference between means: -18 ± 5.2
HCT116 cells; MPZ-GFP, mean ± SEM, n=3
  Mean ± SEM (Fig 1S2D): 37.91 ± 5.341, n=3
HCT116 cells; no siDR5, mean ± SEM
  Mean ± SEM (Prism T-tests, Annexin V for MPZ-GFP): 33 ± 4.7 N=3
HCT116 cells; siDR5, mean ± SEM
  Mean ± SEM (Prism T-tests, Annexin V for MPZ-GFP): 15 ± 2.3 N=3
HCT116 cells; [2]
  Annexin V+: 10.4
  Annexin V-: 89.6
HCT116 cells; [3]
  Annexin V+: 17
  Annexin V-: 83
HCT116 cells; [4]
  Annexin V+: 17.8
  Annexin V-: 82.2
HCT116 cells; siRNA DR5 (siDR5)
  avg Annexin V+: 15.0667
  avg Annexin V-: 84.9333
HCT116 cells; siRNA DR5
  AnnexinV+ (Statistic, single cells): 10.4
  AnnexinV- (Statistic, single cells): 89.6
  GFP+ (Statistic, single cells): 40.8
  GFP- (Statistic, single cells): 59.2
  Q1: APC-A- , DAPI-A+ (Statistic, single cells): 1.26
  Q2: APC-A+ , DAPI-A+ (Statistic, single cells): 8.07
  Q3: APC-A+ , DAPI-A- (Statistic, single cells): 1.36
  Q4: APC-A- , DAPI-A- (Statistic, single cells): 89.3
  SytoxBlue+ (Statistic, single cells): 9.1
  SytoxBlue- (Statistic, single cells): 90.9
  dead cells (Statistic): 6.03
  FITC-A+ (Statistic, dead cells): 43.4
  FITC-A- (Statistic, dead cells): 56.6
HCT116 cells; siRNA TRAIL
  AnnexinV+ (Statistic, single cells): 20.8
  AnnexinV- (Statistic, single cells): 79.2
  GFP+ (Statistic, single cells): 47.9
  GFP- (Statistic, single cells): 52.1
  Q1: APC-A- , DAPI-A+ (Statistic, single cells): 2.56
  Q2: APC-A+ , DAPI-A+ (Statistic, single cells): 16.8
  Q3: APC-A+ , DAPI-A- (Statistic, single cells): 2.29
  Q4: APC-A- , DAPI-A- (Statistic, single cells): 78.3
  SytoxBlue+ (Statistic, single cells): 18.9
  SytoxBlue- (Statistic, single cells): 81.1
  dead cells (Statistic): 10.4
  FITC-A+ (Statistic, dead cells): 43.4
  FITC-A- (Statistic, dead cells): 56.6
HCT116 cells; [5]
  Annexin V+: 41.8
  Annexin V-: 58.2
HCT116 cells; [6]
  AnnexinV+ (Statistic, single cells): 41.8
  AnnexinV- (Statistic, single cells): 58.2
  GFP+ (Statistic, single cells): 60.1
  GFP- (Statistic, single cells): 39.9
  Q1: APC-A- , DAPI-A+ (Statistic, single cells): 10.7
  Q2: APC-A+ , DAPI-A+ (Statistic, single cells): 31.7
  Q3: APC-A+ , DAPI-A- (Statistic, single cells): 8.04
  Q4: APC-A- , DAPI-A- (Statistic, single cells): 49.5
  SytoxBlue+ (Statistic, single cells): 40
  SytoxBlue- (Statistic, single cells): 60
  dead cells (Statistic): 22
  FITC-A+ (Statistic, dead cells): 37.6
  FITC-A- (Statistic, dead cells): 62.4
HCT116 cells; [7]
  Annexin V+: 25.8
  Annexin V-: 74.2
HCT116 cells; [8]
  Annexin V+: 32
  Annexin V-: 68
HCT116 cells; siRNA scrambled
  avg Annexin V+: 33.2
  avg Annexin V-: 66.8
[1]; [9]
  Pearson's correlation per cell between DR5 and ERGIC53: 0.61 ± 0.03
  Pearson's correlation per cell between DR5 and giantin: 0.14 ± 0.02
[1]; versus 90° rotated images, 24 hr
  overlap (mean Pearson's correlation) with DR5 signal: statistically significant overlap with DR5 signal
